The results in this text go back to patent EP4818204A1 (Nanjing Leads Biolabs Co., Ltd., dated 2026).

The target in assay [1] is T1, human Activin B protein (human, UniProt P09529 293-407).
T1 construct: Bought; Activin B is by nature a dimer of inhibin beta B chains
T1 sequence (looked up): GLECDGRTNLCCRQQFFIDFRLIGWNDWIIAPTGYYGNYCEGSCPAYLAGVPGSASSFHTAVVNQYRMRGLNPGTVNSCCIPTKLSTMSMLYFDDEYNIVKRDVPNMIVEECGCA
Description: ELISA, coated protein, antibody at 4 µg/mL. (An ELISA detects its analyte on a solid surface through an enzyme-linked reagent.)

Assay [2] has as its target T2, human TGFβ1 protein (human, UniProt P01137 279-390).
T2 construct: Bought
Description: ELISA, coated protein, antibody at 4 µg/mL.

In assay [3] the target is T3, human GDF2 protein (human, UniProt Q9UK05 320-429).
T3 construct: Bought
T3 sequence (looked up): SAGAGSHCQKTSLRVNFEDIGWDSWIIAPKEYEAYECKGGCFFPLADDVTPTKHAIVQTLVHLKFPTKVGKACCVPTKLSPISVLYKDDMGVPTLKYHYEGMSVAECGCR
Description: ELISA, coated protein, antibody at 4 µg/mL.

The target of assay [4] is T4, human GFRα1 protein (human, UniProt P56159 25-429, limits assumed).
T4 construct: Bought
T4 sequence (looked up): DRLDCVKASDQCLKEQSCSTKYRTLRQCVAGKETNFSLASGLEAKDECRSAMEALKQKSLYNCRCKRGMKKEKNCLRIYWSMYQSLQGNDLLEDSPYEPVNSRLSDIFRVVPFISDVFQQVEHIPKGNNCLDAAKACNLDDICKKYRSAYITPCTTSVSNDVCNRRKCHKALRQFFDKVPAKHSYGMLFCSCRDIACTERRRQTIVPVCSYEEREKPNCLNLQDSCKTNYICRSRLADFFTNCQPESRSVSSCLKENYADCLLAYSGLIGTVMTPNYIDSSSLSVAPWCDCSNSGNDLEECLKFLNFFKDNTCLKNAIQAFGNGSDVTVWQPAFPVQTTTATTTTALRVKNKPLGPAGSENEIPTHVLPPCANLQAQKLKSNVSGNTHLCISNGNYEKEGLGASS
Nature of the assay: ELISA, coated protein, antibody at 4 µg/mL.

Assay [5] deals with T5, human GDF1 protein (human, UniProt P27539 254-372, limits assumed).
T5 construct: Bought
T5 sequence (looked up): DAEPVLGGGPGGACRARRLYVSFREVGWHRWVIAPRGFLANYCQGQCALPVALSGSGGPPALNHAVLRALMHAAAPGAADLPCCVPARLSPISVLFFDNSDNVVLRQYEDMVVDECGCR
Nature of the assay: ELISA, coated protein, antibody at 4 µg/mL.

Assay [6] addresses T6, human Activin A protein (human, UniProt P08476 311-426).
T6 construct: Bought; Activin A is by nature a dimer of inhibin beta A chains
T6 sequence (looked up): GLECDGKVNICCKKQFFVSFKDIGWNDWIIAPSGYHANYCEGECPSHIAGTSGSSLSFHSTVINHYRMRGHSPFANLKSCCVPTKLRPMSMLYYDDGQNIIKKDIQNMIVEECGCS
Nature of the assay: ELISA, coated protein, antibody at 4 µg/mL.

Assay [7] deals with T7, human BMP4 protein (human, UniProt P12644 293-408).
T7 construct: Bought
T7 sequence (looked up): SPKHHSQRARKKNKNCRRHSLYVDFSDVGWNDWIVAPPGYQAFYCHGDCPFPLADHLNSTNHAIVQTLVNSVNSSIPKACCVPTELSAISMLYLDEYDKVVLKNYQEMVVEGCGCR
Nature of the assay: ELISA, coated protein, antibody at 4 µg/mL.

For assay [8], the target named is T8, human GDF11 protein (human, UniProt O95390 299-407).
T8 construct: Bought
T8 sequence (looked up): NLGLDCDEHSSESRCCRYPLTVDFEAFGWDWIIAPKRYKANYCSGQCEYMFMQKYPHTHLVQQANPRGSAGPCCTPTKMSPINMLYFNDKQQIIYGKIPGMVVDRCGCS
Nature of the assay: ELISA, coated protein, antibody at 4 µg/mL.

Assay [9] concerns the target T9, Human GDF15 protein (human, UniProt Q99988 197-308).
T9 construct: Natural GDF15 is said to be a disulfide-linked homodimer; also called Human-GDF15-his
T9 sequence: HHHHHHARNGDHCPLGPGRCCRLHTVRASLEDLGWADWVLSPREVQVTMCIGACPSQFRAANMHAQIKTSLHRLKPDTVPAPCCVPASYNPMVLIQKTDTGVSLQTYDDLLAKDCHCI
Description: ELISA, coated protein, antibody at 4 µg/mL.

Assay [10] concerns the target T10, human GDF3 protein (human, UniProt Q9NR23 251-364, limits assumed).
T10 construct: Bought
T10 sequence (looked up): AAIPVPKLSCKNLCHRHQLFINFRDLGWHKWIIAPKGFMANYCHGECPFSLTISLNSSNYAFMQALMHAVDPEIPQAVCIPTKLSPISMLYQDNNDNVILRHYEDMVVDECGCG
Description: ELISA, coated protein, antibody at 4 µg/mL.

For assay [11], the target named is T11, human BMP2 protein (human, UniProt P12643 283-396).
T11 construct: Bought
T11 sequence (P12643 283-396 limits assumed): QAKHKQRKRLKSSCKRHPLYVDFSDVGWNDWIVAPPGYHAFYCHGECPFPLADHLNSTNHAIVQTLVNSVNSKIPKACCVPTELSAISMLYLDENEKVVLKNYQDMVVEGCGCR
Nature of the assay: ELISA, coated protein, antibody at 4 µg/mL.

Assay [12] concerns the target human AMH protein (human) (UniProt P03971). Nature of the assay: ELISA, coated protein, antibody at 4 µg/mL.
Assay [13] has as its target human GDF8 protein (human) (UniProt O14793). Nature of the assay: ELISA, coated protein, antibody at 4 µg/mL.
The target in assay [14] is T1, human Activin B protein. Nature of the assay: ELISA, coated protein.
Assay [15] deals with T2, human TGFβ1 protein. Nature of the assay: ELISA, coated protein.
The target in assay [16] is T3, human GDF2 protein. Nature of the assay: ELISA, coated protein.
Assay [17] concerns the target T4, human GFRα1 protein. Description: ELISA, coated protein.
The target of assay [18] is T5, human GDF1 protein. Description: ELISA, coated protein.
In assay [19] the target is T6, human Activin A protein. Description: ELISA, coated protein.
The target in assay [20] is T7, human BMP4 protein. Nature of the assay: ELISA, coated protein.
Assay [21] concerns the target T8, human GDF11 protein. Nature of the assay: ELISA, coated protein.
The target in assay [22] is T10, human GDF3 protein. Description: ELISA, coated protein.
The target in assay [23] is T11, human BMP2 protein. Description: ELISA, coated protein.

T2 sequence (P01137 279-390 limits assumed): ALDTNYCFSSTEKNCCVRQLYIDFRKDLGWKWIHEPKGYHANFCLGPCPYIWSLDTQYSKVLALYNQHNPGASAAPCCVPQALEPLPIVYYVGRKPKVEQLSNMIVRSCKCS

B1: Hu21H6D2 (antibody, human IgG1, kappa, V domains shown)
VH: QVQLVQSGAEVKKPGASVKVSCKASGYTFTGYIMNWVRQAPGQRLEWMGDIDPYYGDAKYNQKFKGKVTITVDKSASTAYMELSSLRSEDTAVYYCARRDYDHGSFAYWGQGTLVTVSS
VL: EIVLTQSPDFQSVTPKEKVTITCSASSSVNYMHWYQQKPDQSPKRLIYDTSKLASGVPSRFSGSGSGTDYTLTINSLEAEDAATYYCQQWSSNPPTFGQGTKLEIKR
notes: Humanized form of murine 21H6D2; human IgG1 constant region with L234A, L235A, G237A and kappa light chain constant region; also called hu21H6D2-IgG1-mut(L234A,L235A,G237A)
As to B1, the OD value in assay [1] was 0.0899 OD 450 nm-620 nm; in [2], 0.0426 OD 450 nm-620 nm; in assay [3], 0.0648 OD 450 nm-620 nm; in assay [4] it was 0.0655 OD 450 nm-620 nm; in assay [5], 0.0412 OD 450 nm-620 nm; in assay [6], 0.0632 OD 450 nm-620 nm. In addition, the OD value was determined as 0.0411 OD 450 nm-620 nm in assay [7]; 0.0426 OD 450 nm-620 nm in assay [8]; 3.17 OD 450 nm-620 nm in [9]; 0.041 OD 450 nm-620 nm in assay [10]; 0.0683 OD 450 nm-620 nm in assay [11]. For the same molecule, the OD value (OD 450 nm-620 nm) was 0.0537 in assay [12] and 0.0426 in assay [13]. The binding result in assay [14], in assay [15], in [16], in [17], in assay [18] and in assay [19] was “no binding (tested: 4 µg/mL)” each time. Besides, the binding result in assay [20], in [21], in assay [22] and in assay [23] was “no binding (tested: 4 µg/mL)” in each case.

B2: HuVHH43-3 (Fc fusion)
heavy: QLQLVESGGGLVQPGGSLRLSCAASGHTYGMGWFRQAPGKAREIVSAISRSGSSTYYADSVKGRFTISRDNSKNTLYLQMNSLRAEDTAVYICGASTSALVPTTTGMYAYWGQGTRVTVSSEPKSSDKTHTCPPCPAPEAAGAPSVFLFPPKPKDTLMISRTPEVTCVVVDVSHEDPEVKFNWYVDGVEVHNAKTKPREEQYNSTYRVVSVLTVLHQDWLNGKEYKCKVSNKALPAPIEKTISKAKGQPREPQVYTLPPSREEMTKNQVSLTCLVKGFYPSDIAVEWESNGQPENNYKTTPPVLDSDGSFFLYSKLTVDKSRWQQGNVFSCSVMHEALHNHYTQKSLSLSPGK
notes: also called huVHH43-IgG1-mut(L234A,L235A,G237A); VHH humanized anti-GDF15 antibody
Take B2: the OD value in assay [1] was 0.062 OD 450 nm-620 nm; in assay [2] it was 0.055 OD 450 nm-620 nm; in [3] it was 0.0644 OD 450 nm-620 nm; in assay [4] it was 0.27 OD 450 nm-620 nm; in assay [5], 0.0504 OD 450 nm-620 nm; in [6] it was 0.0493 OD 450 nm-620 nm. The OD value in assay [7] was 0.0539 OD 450 nm-620 nm; in assay [8], 0.04 OD 450 nm-620 nm; in [9], 3.21 OD 450 nm-620 nm; in assay [10], 0.0406 OD 450 nm-620 nm; in assay [11] it was 0.0538 OD 450 nm-620 nm. Further, the OD value (OD 450 nm-620 nm) was 0.0485 in assay [12] and 0.0421 in assay [13]. Also, the binding result in assay [14], in [15], in assay [16], in [17], in [18] and in assay [19] was “no binding (tested: 4 µg/mL)” throughout. Also, the binding result in assay [20], in assay [21], in [22] and in [23] was “no binding (tested: 4 µg/mL)” in each case.

B3: Hu19C4C7 (antibody, human IgG1, kappa)
heavy: QVQLVQSGAEVKKPGSSVKVSCKASGYSFTGYIMNWVRQAPGQSLEWMGDIDPYYGGPNYNQKFQGRVTITVDKSTSTAYMELSSLRSEDTAVYYCSRRDYNYGSFAYWGQGTLVTVSSASTKGPSVFPLAPSSKSTSGGTAALGCLVKDYFPEPVTVSWNSGALTSGVHTFPAVLQSSGLYSLSSVVTVPSSSLGTQTYICNVNHKPSNTKVDKKVEPKSCDKTHTCPPCPAPEAAGAPSVFLFPPKPKDTLMISRTPEVTCVVVDVSHEDPEVKFNWYVDGVEVHNAKTKPREEQYNSTYRVVSVLTVLHQDWLNGKEYKCKVSNKALPAPIEKTISKAKGQPREPQVYTLPPSREEMTKNQVSLTCLVKGFYPSDIAVEWESNGQPENNYKTTPPVLDSDGSFFLYSKLTVDKSRWQQGNVFSCSVMHEALHNHYTQKSLSLSPGK
light: QIVLTQSPATLSLSPGERATLSCRASSSVNYMHWYQQKPGQAPRPLIYATSNLATGIPARFSGSGSGTDYTLTISSLEPEDFAVYYCQQWSDNPPTFGQGTKLEIKRTVAAPSVFIFPPSDEQLKSGTASVVCLLNNFYPREAKVQWKVDNALQSGNSQESVTEQDSKDSTYSLSSTLTLSKADYEKHKVYACEVTHQGLSSPVTKSFNRGEC
notes: Humanized form of murine 19C4C7; human IgG1 constant region with L234A, L235A, G237A and kappa light chain constant region; also called hu19C4C7-IgG1-mut(L234A,L235A,G237A)
Regarding B3, the OD value worked out at 0.136 OD 450 nm-620 nm in assay [1]; 0.0437 OD 450 nm-620 nm in assay [2]; 0.0678 OD 450 nm-620 nm in assay [3]; 0.0468 OD 450 nm-620 nm in assay [4]; 0.0433 OD 450 nm-620 nm in assay [5]; 0.0577 OD 450 nm-620 nm in assay [6]. Besides, the OD value in assay [7] is 0.0432 OD 450 nm-620 nm; in [8], 0.0368 OD 450 nm-620 nm; in [9], 3.27 OD 450 nm-620 nm; in [10], 0.0418 OD 450 nm-620 nm; in [11], 0.0457 OD 450 nm-620 nm. Also, the OD value (OD 450 nm-620 nm) in [12] worked out at 0.0464; in assay [13], 0.0423. The binding result in [14], in assay [15], in [16], in assay [17], in assay [18] and in assay [19] was “no binding (tested: 4 µg/mL)” in each case. The binding result in assay [20], in assay [21], in [22] and in assay [23] was “no binding (tested: 4 µg/mL)” each time.
